Test results reported in article PMC2133053 (The Journal of Cell Biology, 1998).

Target: GST–INAD fusion protein (full-length INAD in pGEX5.1) (Drosophila, UniProt Q24008 1-674)
Experiment: pull-down

B1: PKC^D (last three residues changed to aspartic acid), in vitro translated, 35S-labelled (enzyme, Drosophila, UniProt P13677 1-700, looked up)
chain: MAAAAVATPGATVLPPSVPSAAPGAKAPAAGAGKGPGNLLEITGEANIVNYMKNRLRKGAMKRKGLEMVNGHRFGVRFFKNPTYCGHCKDFIWGFGKQGFQCEECRFNIHQKCCKFVVFKCPGKDTDFDADCAKVKHGWISTTYTTPTFCDECGLLLHGVAHQGVKCENCNLNVHHACQETVPPMCGADISEVRGKLLLYVELKGNNLKVDIKEAANLIPMDTNGFSDPYIAVQMHPDRSGRTKKKTKTIQKNLNPVFNETFTFELQPQDRDKRLLIEVWDWDRTSRNDFMGSFSFSLEELQKEPVDGWYKFLSQVEGEHYNIPCVDAFNDIARLRDEVRHDRRPNEKRRMDNKDMPHNMSKRDMIRAADFNFVKVIGKGSFGKVLLAERRGTDELYAVKVLRKDVIIQTDDMELPMNEKKILALSGRPPFLVSMHSCFQTMDRLFFVMEYCKGGDLMYHMQQYGRFKESVAIFYAVEVAIALFFLHERDIIYRDLKLDNILLDGEGHVKLVDFGLSKEGVTERQTTRTFCGTPNYMAPEIVSYDPYSIAADWWSFGVLLFEFMAGQAPFEGDDETTVFRNIKDKKAVFPKHFSVEAMDIITSFLTKKPNNRLGAGRYARQEITTHPFFRNVDWDKAEACEMEPPIKPMIKHRKDISNFDDAFTKEKTDLTPTDKLFMMNLDQNDFIGFSFMNPEFIDDD
modifications: [35S]methionine label
fold reduction of binding relative to wild-type PKC: ~8 fold
